Reference: the nanobody polyreactivity screen of Harvey et al. (2022)

Test: yeast display, Sf9 membrane polyspecificity reagent, FACS + sequencing; frameworks hold sequencing errors
Outline: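 In a synthetic yeast display library (Saccharomyces cerevisiae BJ5465), nanobody expression was induced with galactose for 36–48 hours. FACS gates were set low and high (top ~1%) using anti-HA fluorescence for expression and streptavidin fluorescence for binding of the Sf9 membrane reagent. Each polyreactivity label is drawn from the gate of origin.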

| Sequence | polyreactivity (PSR sort gate) |
| --- | --- |
| QVQLVESGGGLVQAGGSLRLSCAASGRTFFQYAMGWYRQAPGKERELVATIRSGGSTYYADSVKGRFTISRDNAKNTVYLQMNSLKPEDTAVYYCATRYTRFRHFDYWGQGTQVTVSS | low polyreactivity |
| QVQLVESGGGLVQAGGSLRLSCAASGRTFFRNTMGWYRQAPGKERELVATISSSGGSTYYADSVKGRFTISRDNAKNTVYLQMNSLKPEDTAVYYCAAAPSKWYYGYGYWGQGTQVTVSS | high polyreactivity |
| QVQLVESGGGLVQAGGSLRLSCAASGRTFFRYAMGWYRQAPGKERELVAVITRGGSTYYADSVKGRFTISRDNAKNTVYLQMNSLKPEDTAVYYCNADGRVQRKYDYWGQGTQVTVSS | high polyreactivity |
| QVQLVESGGGLVQAGGSLRLSCAASGRTFFSNAMGWYRQAPGKERELVAAISNGDNTYYADSVKGRFTISRDNAKNTVYLQMNSLKPEDTAVYYCAKDYRWVWRKYGYWGQGTQVTVSS | low polyreactivity |
| QVQLVESGGGLVQAGGSLRLSCAASGRTFFSYTMGWYRQAPGKERELVAAISDSDGRTYYADSVKGRFTISRDNAKNTVYLQMNSLKPEDTAVYYCAAVPDKYWSRVRRYLFEHNYWGQGTQVTVSS | low polyreactivity |
| QVQLVESGGGLVQAGGSLRLSCAASGRTFFTNALGGYRQAPGKVRELVASINSGGNTTYADSVKGRFTISRDNAKNTVYLQINSLKPEDTAVSYCAAVRSAQRWRRYYYGGQGTQVTVSS | low polyreactivity |
| QVQLVESGGGLVQAGGSLRLSCAASGRTFFYAMGWYRQAPGKEREFVAAISWSGGSTYYADSVKGRFTISRDNAKNTVYLQMNSLKPEDTAVYYCYKVGYYGVGTSKEFDYWGQGTQVTVSS | high polyreactivity |
| QVQLVESGGGLVQAGGSLRLSCAASGRTFFYNAMGWYRQAPGKERELVAAISKNGGNTYYADSVKGRFTISRDNAKNTVYLQMNSLKPEDTAVYYCAARQSRTGPDRNDYWGQGTQVTVSS | high polyreactivity |
| QVQLVESGGGLVQAGGSLRLSCAASGRTFFYYAMGWYRQAPGKERELVAAISTGGSTNYADSVKGRFTISRDNAKNTVYLQMNSLKPEDTAVYYCNADYDKGVRFNFNASFGEFDYWGQGTQVTVSS | low polyreactivity |
| QVQLVESGGGLVQAGGSLRLSCAASGRTFGDKAMGWYRQAPGKERELVAAISWSGGRTYYADSVKGRFTISRDNAKNTVYLQMNSLKPEDTAVYYCAARNNRYPLYNYWGQGTQVTVSS | low polyreactivity |
| QVQLVESGGGLVQAGGSLRLSCAASGRTFGDNAMGWYRQAPGKERELVAAISSGDSTNYADSVKGRFTISRDNAKNTVYLQMNSLKPEDTAVYYCAAEFSHTYVYVDLDYWGQGTQVTVSS | low polyreactivity |
| QVQLVESGGGLVQAGGSLRLSCAASGRTFGDNAMGWYRQAPWKERELVAAISRSGRTYYADSVKGRFTISRDNAKNTVYLQMNSLKPEYTAVYYCNTPYAHYVTHGLDYWGQGTQVTVSS | high polyreactivity |
| QVQLVESGGGLVQAGGSLRLSCAASGRTFGEYTMGWYRQAPGKERELVAAISSAGRTNYADSVKGRFTISRDNAKNTVYLQMNSLKPEDTAVYYCAKTAERLHYGVYRFDYWGQGTQVTVSS | low polyreactivity |
| QVQLVESGGGLVQAGGSLRLSCAASGRTFGFYAMGWDRQAPGKERELVAVITWSVTSTYYADSVKGRFTISRDNAKNTVYLQMNSLKPEDTAVYYCAAEYVVGASSVRDSLDYGYWGQGTQVTVSS | high polyreactivity |
| QVQLVESGGGLVQAGGSLRLSCAASGRTFGFYAMGWYRQAPGKERELVAGINNRGSGTYYADSVKGRFTISRDNAKNTVYLLMNSLKPEDTAVYYCAAGRRAKSRTWVNIRYDYWGQGTQVTVST | high polyreactivity |
| QVQLVESGGGLVQAGGSLRLSCAASGRTFGFYAMGWYRQAPGKERELVATISSSGGSTYYADSVKGRYTISRDNAKNTVYIQMNSLKPEDTAVYYCAKVVSGWRSHYIGDYWGQGTQVTVSS | low polyreactivity |

| Sequence | polyreactivity (PSR sort gate) |
| --- | --- |
| QVQLVESGGGLVQAGGSLRLSCAASGRTFGGNAIGWYRQAPGKERELVAAISSGARTNYADSVKGRFTISRDNAKNTVYLQMNSLKPEDNAVYYCAAGYPYSYRDYYYWVQGTQVTVSS | high polyreactivity |
| QVQLVESGGGLVQAGGSLRLSCAASGRTFGGNAMGWYRQAPGKERELVAAISLSGGTTYYADSVKGRFTISRDNAKNTVYLQMNSLKPEDTAVYYCAADTAGYYDEDKDGDYWGQGTQVTVSS | low polyreactivity |
| QVQLVESGGGLVQAGGSLRLSCAASGRTFGGYAMGWYRQAPGKERELVAAITWRGGRTFYADSVKGRFTISRDNAKNTVYLQMNSLKPEDTAVYYCNVVKYGPRYDYWGQGTQVTVSS | high polyreactivity |
| QVQLVESGGGLVQAGGSLRLSCAASGRTFGGYTMGWYRQAPGKERELVAAINWSGTTYYADSVKGRFTISRDNAKNTVYLQMNSLIPEDTAVYYCAASLVSYYGLARDSVDYWGQGTQVNVSS | low polyreactivity |
| QVQLVESGGGLVQAGGSLRLSCAASGRTFGHNAMGWYRQAPGKERELVAAISASGSNTYYADSVKGRFTISRDNAKNTVYLQMNSLKPEDTAVYYCAKQVYRPGQQSRYDYWGQGTQVTVSS | low polyreactivity |
| QVQLVESGGGLVQAGGSLRLSCAASGRTFGIYAMGWYRQAPGKERELVAAITGRGGSTHYADSVKGRFTISRDNAKNTVYLQMNSLKPEDTAVYYCAADYRYNRGITSNKDYDYWGQGTQVTVSS | low polyreactivity |
| QVQLVESGGGLVQAGGSLRLSCAASGRTFGIYAMGWYRQAPGKERELVATISWRGGSTYYADSVKGRFTISRDNAKNSVYLQMNSLKPEDTAVYYCAAGYYPYWGQGTQVTVSS | low polyreactivity |
| QVQLVESGGGLVQAGGSLRLSCAASGRTFGIYAMGWYRQAPGKERELVATISWRGGSTYYADSVKGRFTISRDNAKNTVYLQMNSLKPEDTAVSYCAAGYYPYWGQGTQVTVSS | low polyreactivity |
| QVQLVESGGGLVQAGGSLRLSCAASGRTFGKNAMGWYRQAPGKEREFVAAITSRGGSTYYADSVKGRFTISRDYAKNTVYLQMNSLKPEDTAVYYCNREYKRPSQRTEHYYWGQGSQVTVSS | low polyreactivity |
| QVQLVESGGGLVQAGGSLRLSCAASGRTFGKYAMGWYRQAPGKERELVATITRTARTNYADSVKGRFTNSRDNAKNTVYFQMNSLKPEDTAVYYCAKGWPAIYGTYDYWGQGTQVTVSS | high polyreactivity |
| QVQLVESGGGLVQAGGSLRLSCAASGRTFGLNAMGWYRQAPGKERELVAAITSGGSTYYADSVKGRFTITRDNAKTTVYLQMNSLKPEDTAVYYCAAAYFDFWGWLHDYWGQGTQVTVSS | low polyreactivity |
| QVQLVESGGGLVQAGGSLRLSCAASGRTFGNYAMGWYRQAPAKESELVAAITGRGGSTHYADSVKGRFTISRDNAKYTVYLQMNSLKPEDTAVYDCAADYRYNRGITSNKDYDYWGQGTQVTVSS | low polyreactivity |
| QVQLVESGGGLVQAGGSLRLSCAASGRTFGNYAMGWYRQAPGKERELVAAITSSGGTTYYADSVKGRFTISRDYAKNTVYLQMNSLKPEDTAVYYCAARHYPRNSWGYDYWGQGTQVNVSS | high polyreactivity |
| QVQLVESGGGLVQAGGSLRLSCAASGRTFGPYAMGWYRQAPGKERELVAAISRSGGRTYYADSVKGRFSISRDNAKNTVYLQMNSLKPEETAVYYCNALYLSTRSGDYWGQGSQVTVSS | high polyreactivity |
| QVQLVESGGGLVQAGGSLRLSCAASGRTFGPYARGWYIQAPGKERELVAAISWIGTSTYYADSVKGRFTISRDNAKNTVYLQMNSLKPEDTAVYYCAALEKNYTTKFYYWGQVTQVTVSS | high polyreactivity |
